For one substance, EC50 (nM), NFkB-luciferase reporter, HuCD40 293 HEK NFkB c3 cells and EC50 (nM), NFkB/AP-1 reporter, Ramos-Blue B-cells results are on record in patent publication US20210260159A1.

The target in this assay is human CD40 on cells (HEK293 transfected with human CD40; Ramos-Blue B-lymphocytes; human B cells; human monocyte-derived dendritic cells) (human) (UniProt P25942). The assay can be described thus: cell-based or functional assay.
UniProt P25942, sequence (P25942 21-277 limits assumed): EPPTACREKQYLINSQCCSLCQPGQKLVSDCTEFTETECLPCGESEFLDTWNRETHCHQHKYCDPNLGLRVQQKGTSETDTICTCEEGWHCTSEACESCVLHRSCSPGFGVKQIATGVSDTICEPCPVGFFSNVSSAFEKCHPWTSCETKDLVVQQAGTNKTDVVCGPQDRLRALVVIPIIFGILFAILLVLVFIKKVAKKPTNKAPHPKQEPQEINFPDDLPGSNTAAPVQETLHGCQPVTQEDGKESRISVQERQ

For the substance “human IgG4P isotype control NIP-228 (antibody)”, the EC50 (nM), NFkB-luciferase reporter, HuCD40 293 HEK NFkB c3 cells worked out at 2.27 nM and the EC50 (nM), NFkB/AP-1 reporter, Ramos-Blue B-cells turned out to be 208 nM.
